Results taken from the supplement of paper PMC9112550, “Optimization of the antimicrobial peptide Bac7 by deep mutational scanning” (BMC Biology, 2022).

System: Escherichia coli TOP10
Test: shrunken log2 fold change of peptide-encoding DNA abundance (4.5 h post-induction vs induction); higher = less antimicrobial activity (less host growth inhibition)
Settings: time post-induction: 4.5 h; library: site-saturation at positions 5, 18, 19, 20
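Further: peptides expressed intracellularly from a pBAD plasmid library in pooled LB shake-flask culture, induced with 0.3% L-arabinose, DNA abundance read by NGS, three biological replicates, DESeq2 with apeglm shrinkage.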

RRIRKRPPRLPRPRPRPTKQPRP
shrunken log2 fold change: -0.0553

RRIRKRPPRLPRPRPRPTMLPRP
shrunken log2 fold change: 0.131

RRIRKRPPRLPRPRPRPTNCPRP
shrunken log2 fold change: 0.0303

RRIRKRPPRLPRPRPRPTNMPRP
shrunken log2 fold change: -0.155

RRIRKRPPRLPRPRPRPTNWPRP
shrunken log2 fold change: 0.689

RRIRKRPPRLPRPRPRPTPKPRP
shrunken log2 fold change: 0.334

RRIRKRPPRLPRPRPRPTQAPRP
shrunken log2 fold change: -0.00908

RRIRKRPPRLPRPRPRPTQVPRP
shrunken log2 fold change: 0.312

RRIRKRPPRLPRPRPRPTSVPRP
shrunken log2 fold change: 0.0245

RRIRKRPPRLPRPRPRPTWFPRP
shrunken log2 fold change: 0.203

RRIRKRPPRLPRPRPRPTYDPRP
shrunken log2 fold change: -0.0829

RRIRKRPPRLPRPRPRPTYSPRP
shrunken log2 fold change: -0.191

RRIRKRPPRLPRPRPRPVAFPRP
shrunken log2 fold change: 0.238

RRIRKRPPRLPRPRPRPVATPRP
shrunken log2 fold change: 0.635

RRIRKRPPRLPRPRPRPVAVPRP
shrunken log2 fold change: 0.138

RRIRKRPPRLPRPRPRPVCCPRP
shrunken log2 fold change: 0.517

RRIRKRPPRLPRPRPRPVDWPRP
shrunken log2 fold change: 0.852

RRIRKRPPRLPRPRPRPVGHPRP
shrunken log2 fold change: 0.224

RRIRKRPPRLPRPRPRPVGRPRP
shrunken log2 fold change: 0.21

RRIRKRPPRLPRPRPRPVHYPRP
shrunken log2 fold change: -0.0126

RRIRKRPPRLPRPRPRPVITPRP
shrunken log2 fold change: -0.249

RRIRKRPPRLPRPRPRPVIWPRP
shrunken log2 fold change: 0.153

RRIRKRPPRLPRPRPRPVKDPRP
shrunken log2 fold change: 0.0491

RRIRKRPPRLPRPRPRPVMAPRP
shrunken log2 fold change: 0.588

RRIRKRPPRLPRPRPRPVNWPRP
shrunken log2 fold change: 0.192

RRIRKRPPRLPRPRPRPVPEPRP
shrunken log2 fold change: 0.151

RRIRKRPPRLPRPRPRPVPVPRP
shrunken log2 fold change: 0.253

RRIRKRPPRLPRPRPRPVQSPRP
shrunken log2 fold change: 0.00205

RRIRKRPPRLPRPRPRPVRAPRP
shrunken log2 fold change: 1.27

RRIRKRPPRLPRPRPRPVRFPRP
shrunken log2 fold change: 0.397

RRIRKRPPRLPRPRPRPVRIPRP
shrunken log2 fold change: 0.494

RRIRKRPPRLPRPRPRPVRYPRP
shrunken log2 fold change: 0.152

RRIRKRPPRLPRPRPRPVYIPRP
shrunken log2 fold change: -0.564

RRIRKRPPRLPRPRPRPWCEPRP
shrunken log2 fold change: 0.157

RRIRKRPPRLPRPRPRPWCKPRP
shrunken log2 fold change: -0.188

RRIRKRPPRLPRPRPRPWCNPRP
shrunken log2 fold change: -0.204

RRIRKRPPRLPRPRPRPWDPPRP
shrunken log2 fold change: -0.235

RRIRKRPPRLPRPRPRPWDTPRP
shrunken log2 fold change: -0.00122

RRIRKRPPRLPRPRPRPWFDPRP
shrunken log2 fold change: -0.0566

RRIRKRPPRLPRPRPRPWHIPRP
shrunken log2 fold change: -0.0551

RRIRKRPPRLPRPRPRPWINPRP
shrunken log2 fold change: -0.0449

RRIRKRPPRLPRPRPRPWKLPRP
shrunken log2 fold change: -0.14

RRIRKRPPRLPRPRPRPWLFPRP
shrunken log2 fold change: 0.202

RRIRKRPPRLPRPRPRPWLKPRP
shrunken log2 fold change: 0.0705

RRIRKRPPRLPRPRPRPWMSPRP
shrunken log2 fold change: -0.0718

RRIRKRPPRLPRPRPRPWMTPRP
shrunken log2 fold change: -0.13

RRIRKRPPRLPRPRPRPWNTPRP
shrunken log2 fold change: -0.332

RRIRKRPPRLPRPRPRPWPQPRP
shrunken log2 fold change: 0.0865

RRIRKRPPRLPRPRPRPWQDPRP
shrunken log2 fold change: -0.0361

RRIRKRPPRLPRPRPRPWQHPRP
shrunken log2 fold change: -0.0281

RRIRKRPPRLPRPRPRPWRDPRP
shrunken log2 fold change: 0.188

RRIRKRPPRLPRPRPRPWSCPRP
shrunken log2 fold change: -0.22

RRIRKRPPRLPRPRPRPWSSPRP
shrunken log2 fold change: -0.136

RRIRKRPPRLPRPRPRPWTCPRP
shrunken log2 fold change: -0.0961

RRIRKRPPRLPRPRPRPWTFPRP
shrunken log2 fold change: 0.489

RRIRKRPPRLPRPRPRPWTHPRP
shrunken log2 fold change: 0.0375

RRIRKRPPRLPRPRPRPWTTPRP
shrunken log2 fold change: -0.0228

RRIRKRPPRLPRPRPRPWTVPRP
shrunken log2 fold change: -1.8

RRIRKRPPRLPRPRPRPWVSPRP
shrunken log2 fold change: 0.345

RRIRKRPPRLPRPRPRPWVWPRP
shrunken log2 fold change: 0.445

RRIRKRPPRLPRPRPRPWWPPRP
shrunken log2 fold change: 0.0304

RRIRKRPPRLPRPRPRPWYMPRP
shrunken log2 fold change: -0.158

RRIRKRPPRLPRPRPRPYAEPRP
shrunken log2 fold change: -0.0528

RRIRKRPPRLPRPRPRPYCTPRP
shrunken log2 fold change: -0.19

RRIRKRPPRLPRPRPRPYFAPRP
shrunken log2 fold change: -0.0674

RRIRKRPPRLPRPRPRPYGTPRP
shrunken log2 fold change: -0.272

RRIRKRPPRLPRPRPRPYHIPRP
shrunken log2 fold change: -0.323

RRIRKRPPRLPRPRPRPYIPPRP
shrunken log2 fold change: -0.651

RRIRKRPPRLPRPRPRPYISPRP
shrunken log2 fold change: -0.0238

RRIRKRPPRLPRPRPRPYIYPRP
shrunken log2 fold change: -0.0483

RRIRKRPPRLPRPRPRPYKLPRP
shrunken log2 fold change: -0.281

RRIRKRPPRLPRPRPRPYLAPRP
shrunken log2 fold change: -0.295

RRIRKRPPRLPRPRPRPYLIPRP
shrunken log2 fold change: -1.9

RRIRKRPPRLPRPRPRPYMKPRP
shrunken log2 fold change: -0.134

RRIRKRPPRLPRPRPRPYMNPRP
shrunken log2 fold change: -0.505
